Reference: patent US20220204603A1 (PHARMABCINE, published 2022)

Columns and labels:
[1] = target: T1, biotinylated human Ang2 protein (human, UniProt O15123 19-496, limits assumed, biotinylated (sites not given)); experiment: competition ELISA: antibody preincubated with biotinylated hAng2, binding to coated human Tie2-Fc
T1 construct: also called hAng2
T1 sequence (looked up): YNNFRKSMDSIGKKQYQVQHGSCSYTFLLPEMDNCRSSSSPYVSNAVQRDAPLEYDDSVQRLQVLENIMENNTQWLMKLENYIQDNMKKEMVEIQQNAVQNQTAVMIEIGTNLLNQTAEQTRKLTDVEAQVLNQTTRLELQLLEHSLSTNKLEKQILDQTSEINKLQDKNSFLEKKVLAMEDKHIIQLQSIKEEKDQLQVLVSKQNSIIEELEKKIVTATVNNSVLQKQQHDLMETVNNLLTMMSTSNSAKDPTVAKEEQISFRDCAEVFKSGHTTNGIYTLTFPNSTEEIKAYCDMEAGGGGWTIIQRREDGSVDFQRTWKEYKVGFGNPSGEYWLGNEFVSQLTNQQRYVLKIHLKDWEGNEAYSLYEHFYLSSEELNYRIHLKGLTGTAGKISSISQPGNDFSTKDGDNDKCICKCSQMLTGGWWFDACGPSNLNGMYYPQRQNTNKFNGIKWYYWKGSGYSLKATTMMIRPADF
Experimental: 1 μg/ml (100 μl per well) of a human Ti32-Fc (R&D Systems, 313-TI) or mouse Tie2-Fc (R&D Systems, 762-T2-100) solution, an integrin α3/β1 solution (R&D systems, 2840-A3-050), or an integrin α5/β1 solution (R&D systems, 3230-A5-050) was added to a 96-well immunoplate (Nunc, US) and then allowed to stand overnight at 4° C. for adsorption. The next day, the plate was washed four times with PBS containing 0.05% Tween-20 (hereinafter, referred to as PBST), and 200 μl of a 2% BSA/PBST solution was added to each well and then allowed to stand at room temperature for 1 hour to perform blocking. Anti-Ang2 candidate antibodies were serially diluted 4-fold at a maximum of 1000 nM, and biotinylated human Ang2 protein was made to a final concentration of 100 ng/mL or 625 ng/mL, followed by previous binding at room temperature for 1 hour. […] The plate was washed three times with PBST, 100 μl of HRP-conjugated streptavidin (R&D Systems, DY998) diluted to 1:200 was added to allow a reaction to occur at room temperature for 1 hour, thereby inducing binding, and the plate was washed four times with PBST, followed by color development using 100 μl of a TMB substrate reagent. The color development reaction was stopped by adding 50 μl of 2N H₂SO₄, and a Sunrise microplate reader (TECAN, CH) was used to measure specific absorbance OD₄₅₀ (FIGS. 4 and 5).

[2] = target: T2, His-tagged human Ang1 (R&D systems, 923-AN/CF) (human, UniProt Q15389 20-498, limits assumed); experiment: binding ELISA, His-tagged human Ang1 coated at 1 µg/ml, detection with HRP anti-human IgG(kappa) [panel 'human Ang1 binding ELISA']
T2 construct: Bought protein; also called hAng1-his; not shown: His tag
T2 sequence (looked up): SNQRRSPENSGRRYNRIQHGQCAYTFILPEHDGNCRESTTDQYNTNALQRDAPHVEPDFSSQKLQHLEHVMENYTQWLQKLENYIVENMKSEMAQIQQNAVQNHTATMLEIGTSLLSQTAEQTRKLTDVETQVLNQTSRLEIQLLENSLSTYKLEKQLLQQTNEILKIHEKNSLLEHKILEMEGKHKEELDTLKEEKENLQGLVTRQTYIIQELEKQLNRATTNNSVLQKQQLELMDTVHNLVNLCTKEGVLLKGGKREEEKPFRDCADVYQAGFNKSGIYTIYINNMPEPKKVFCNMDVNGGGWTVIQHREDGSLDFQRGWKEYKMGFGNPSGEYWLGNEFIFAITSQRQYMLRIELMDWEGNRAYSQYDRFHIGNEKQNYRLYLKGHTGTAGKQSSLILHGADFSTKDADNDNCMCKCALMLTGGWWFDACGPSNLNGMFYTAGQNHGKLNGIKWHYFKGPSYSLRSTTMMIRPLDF
Experimental: (§1) 1 μg/ml (100 μl per well) of a His-tagged human (R&D systems, 623-AN/CF) or mouse (sino, 50298-M07H) Ang2 solution or a His-tagged human (R&D systems, 923-AN/CF) or mouse (sino, 50300-M07H) Ang1 solution was added to a 96-well immunoplate (Nunc, US) and allowed to stand overnight at 4° C. for adsorption. The next day, the solution was washed three times with PBS containing 0.05% Tween-20 (hereinafter, referred to as PBST), and 200 μl of a 2% BSA/PBST solution was added to each well and then allowed to stand at room temperature for 2 hours to perform blocking. After washing three times with PBST, 100 μl of each test antibody solution was added to each well according to concentration to cause binding at room temperature for 1 hour, and then washing was performed three times with PBST, 100 μl of HRP-conjugated goat anti-human IgG(kappa) (bethyl lab #A80-115P) diluted to 1:2000 was added and allowed to react at room temperature for 1 hour, thereby inducing binding, and after washing three times with PBST, color development was performed using 100 μl of a TMB substrate reagent. The color development reaction was stopped by adding 50 μl of 2N H₂SO₄, and a Sunrise microplate reader (TECAN, CH) was used to measure specific absorbance OD₄₅₀₋₆₃₀ (FIG. 3).

[3] = target: T3, His-tagged mouse Ang1 (sino, 50300-M07H) (mouse, UniProt O08538 20-498); experiment: binding ELISA, His-tagged mouse Ang1 coated at 1 µg/ml, detection with HRP anti-human IgG(kappa) [panel 'mouse Ang1 binding ELISA']
T3 construct: Bought protein; not shown: His tag
T3 sequence (looked up): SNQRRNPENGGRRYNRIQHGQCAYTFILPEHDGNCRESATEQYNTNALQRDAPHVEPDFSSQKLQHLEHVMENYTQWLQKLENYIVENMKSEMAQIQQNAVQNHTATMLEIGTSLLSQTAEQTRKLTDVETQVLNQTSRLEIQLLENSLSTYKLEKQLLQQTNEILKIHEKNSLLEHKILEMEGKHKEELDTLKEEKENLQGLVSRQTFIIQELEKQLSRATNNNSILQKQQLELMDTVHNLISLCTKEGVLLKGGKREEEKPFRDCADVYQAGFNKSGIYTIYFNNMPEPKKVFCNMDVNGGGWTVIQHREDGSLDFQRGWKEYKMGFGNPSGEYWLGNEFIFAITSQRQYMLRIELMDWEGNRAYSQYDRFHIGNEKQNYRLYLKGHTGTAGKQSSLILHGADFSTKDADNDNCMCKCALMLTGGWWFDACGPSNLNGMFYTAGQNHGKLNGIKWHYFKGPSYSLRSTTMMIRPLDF
Experimental: as §1

B1: No. 41 anti-Ang2 antibody (IgG) (antibody, V domains shown)
VH: QVQLVESGGGLVQPGGSLRLSCEASGFAFGRYEMNWVRQAPGKGLEWIAYIDTGGGAKVYADSVKGRFTISRDDSKNSLYLQMNSLRAEDTAVYYCTTEGLMNGLHFDMWGQGTMITVSS
VL: DIQMTQSPSTLSASVGDRVAITCRASQAISTWLAWYQQKPGKAPKLLIYTASTLESGVPSRFSGSGSGTDFTLTINSLQPDDFATYYCQQLNSYPYTFGGGTKVEIKR
notes: IgG form: VH cloned into Invivogen pfusess-hchg1, VL into Invivogen pfuse2ss-hclk; also called 2B2
IC50 [1]: 0.475 nM
binding result [2]: no binding (tested: 2 mg/ml (unit as read in the legend))
binding result [3]: no binding (tested: 2 mg/ml (unit as read in the legend))

B2: No. 8 anti-Ang2 antibody (IgG) (antibody, V domains shown)
VH: QVQLVESGGGLVKPGGSLRLSCAASGFTFSSYSMNWVRQAPGKGLEWVSSISASDGATYYADSVRGRFTISRDNSRSTLYLQMNSLRAEDTAVYYCAKILAGYSGPMGGMDVWGQGTTVTVSS
VL: DIQMTQSPSSLSASVGDRVTITCRASRDISNYLAWYQQKPGKAPKSLIYGASNLQSGVSSQFSGSGSGTDFTLTINSLQPEDSATYYCQQYYSYPLTFGGGTKVDIKR
notes: IgG form: VH cloned into Invivogen pfusess-hchg1, VL into Invivogen pfuse2ss-hclk; also called 3A10
IC50 [1]: 0.495 nM
binding result [2]: no binding (tested: 2 mg/ml (unit as read in the legend))
binding result [3]: no binding (tested: 2 mg/ml (unit as read in the legend))

B3: No. 3 anti-Ang2 antibody (IgG) (antibody, V domains shown)
VH: QMQLVQSGGGLVQPGRSLKLSCAASGFSFDDYAMHWVRQAPGKGLEWVATIKDDGSQTYYVDSVKGRFTISRDNAKSSLFLQMNSLRAEDTAVYYCTTEGLMNGLHFDMWGQGTMVTVSS
VL: LVLTQPPSVSGAPGQGVTISCTGSSSNIGAGYDVHWYQQFPGTAPKLLISGNNNRPSGLPDRFSGSKSGTSASLAITGLQAEDEADYYCQSYDSRLGVVFGGGTKLTVLG
notes: IgG form: VH cloned into Invivogen pfusess-hchg1 (heavy chain constant region), VL into Invivogen pfuse2ss-hclk (light chain constant region); Expressed in Expi293F, purified on Protein A; also called 1D10
IC50 [1]: 0.491 nM
binding result [2]: no binding (tested: 2 mg/ml (unit as read in the legend))
binding result [3]: no binding (tested: 2 mg/ml (unit as read in the legend))

B4: No. 4 anti-Ang2 antibody (IgG) (antibody, V domains shown)
VH: QVQLVESGAEVKRPGESLRISCKTSGYSFTSYWIHWVRQMPGKELEWMGSIYPGNSDTRYSPSFQGHVTISADSSSSTAYLQWSSLKASDTAMYYCTTEGLMNGLHFDMWGQGTMVTVSS
VL: DIVMTQTPLSLPVTPGEPASISCRSSQSLLHSLGDNYLDWYLQKPGQSPQLLIYLGSKRAAGVPDRFSGSGSGTDFTLKISRVEAEDVGVYYCMQSLQTPPYTFGQGTKLEIKR
notes: IgG form: VH cloned into Invivogen pfusess-hchg1, VL into Invivogen pfuse2ss-hclk; also called 2D8
IC50 [1]: 0.462 nM
binding result [2]: no binding (tested: 2 mg/ml (unit as read in the legend))
binding result [3]: no binding (tested: 2 mg/ml (unit as read in the legend))

B5: No. 46 anti-Ang2 antibody (IgG) (antibody, V domains shown)
VH: QVQLVESGGGLVQPGRSLRLSCAASGFTFDDCAMHWVRQAPGKGLEWVSGISGNSKNVAYADSVKGRFSISRDDAKNSLYLQMNSLRAEDTAVYYCARDPAYSQFDYWGQGTLITVSS
VL: QSALTQPPSLSATPGQRVTISCSGSSSNVGGYPVNWYQQVPGAAPKLLMYTDYKRPSGVPDRFFGSKSGTSASLAISGLQSEDEADYYCATWDDNLNGYVFGTGTKVTVLG
notes: IgG form: VH cloned into Invivogen pfusess-hchg1, VL into Invivogen pfuse2ss-hclk; also called 3C6
IC50 [1]: 0.337 nM
binding result [2]: no binding (tested: 2 mg/ml (unit as read in the legend))
binding result [3]: no binding (tested: 2 mg/ml (unit as read in the legend))
